Where no end group is shown, it is not given here. The star is where a group is joined. Biotin = O=C1N[C@H]2[C@H](CS[C@H]2CCCCC(=O)*)N1

The chains are these.
T1: Nitric oxide synthase 3 (NOS3), bovine, full-length (bovine, UniProt P29473 1-1205)
T1 construct: Nitric oxide synthase 3 (endothelial NOS), bovine, heterologously expressed in E. coli; called full-length NOS3 in the abstract and discussion; also called eNOS; endothelial nitric oxide synthase; source: E. coli BL21(DE3), purified
T1 sequence (looked up): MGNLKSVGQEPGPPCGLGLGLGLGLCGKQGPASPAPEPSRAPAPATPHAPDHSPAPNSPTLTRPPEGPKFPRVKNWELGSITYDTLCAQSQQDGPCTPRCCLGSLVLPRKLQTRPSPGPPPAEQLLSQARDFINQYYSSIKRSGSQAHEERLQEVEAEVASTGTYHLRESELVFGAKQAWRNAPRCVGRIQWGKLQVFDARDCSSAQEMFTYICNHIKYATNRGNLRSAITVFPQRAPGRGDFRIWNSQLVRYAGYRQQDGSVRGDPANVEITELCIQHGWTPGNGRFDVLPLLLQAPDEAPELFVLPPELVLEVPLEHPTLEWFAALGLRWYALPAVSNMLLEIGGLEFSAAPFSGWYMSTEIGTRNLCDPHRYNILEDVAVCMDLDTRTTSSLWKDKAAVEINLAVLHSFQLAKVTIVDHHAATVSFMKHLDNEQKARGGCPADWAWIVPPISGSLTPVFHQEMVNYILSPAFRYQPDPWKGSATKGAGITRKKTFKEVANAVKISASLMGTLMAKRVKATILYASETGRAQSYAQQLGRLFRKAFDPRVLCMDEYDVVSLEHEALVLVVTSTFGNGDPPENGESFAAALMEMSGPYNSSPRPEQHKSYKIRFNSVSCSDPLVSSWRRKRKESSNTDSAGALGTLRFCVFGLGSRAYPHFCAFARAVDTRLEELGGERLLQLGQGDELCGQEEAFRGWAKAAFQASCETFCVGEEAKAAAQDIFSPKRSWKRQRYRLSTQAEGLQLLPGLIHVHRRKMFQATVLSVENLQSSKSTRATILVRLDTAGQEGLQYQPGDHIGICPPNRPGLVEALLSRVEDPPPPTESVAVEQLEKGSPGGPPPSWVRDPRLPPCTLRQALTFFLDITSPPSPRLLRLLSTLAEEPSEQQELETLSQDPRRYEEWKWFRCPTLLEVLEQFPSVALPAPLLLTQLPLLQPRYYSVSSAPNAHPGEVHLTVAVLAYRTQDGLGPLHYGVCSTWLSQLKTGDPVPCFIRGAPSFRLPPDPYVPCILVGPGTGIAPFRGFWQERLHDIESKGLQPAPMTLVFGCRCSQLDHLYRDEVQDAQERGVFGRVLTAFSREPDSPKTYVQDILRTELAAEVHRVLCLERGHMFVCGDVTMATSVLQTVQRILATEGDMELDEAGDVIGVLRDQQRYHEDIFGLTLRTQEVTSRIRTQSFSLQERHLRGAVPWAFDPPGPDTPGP

B1: NOS3 (bovine), full-length (enzyme, UniProt P29473 1-1205, looked up)
chain: T1 sequence (looked up)
notes: Nitric oxide synthase 3 (endothelial NOS), bovine, heterologously expressed; called full-length in the abstract and discussion; also called nitric oxide synthase 3; eNOS; source: E. coli BL21(DE3), purified
B2: Active GST-JNK1α1 (SignalChem), biotinylated (enzyme, UniProt P45983-2 1-384, looked up)
chain: MSRSKRDNNFYSVEIGDSTFTVLKRYQNLKPIGSGAQGIVCAAYDAILERNVAIKKLSRPFQNQTHAKRAYRELVLMKCVNHKNIIGLLNVFTPQKSLEEFQDVYIVMELMDANLCQVIQMELDHERMSYLLYQMLCGIKHLHSAGIIHRDLKPSNIVVKSDCTLKILDFGLARTAGTSFMMTPYVVTRYYRAPEVILGMGYKENVDLWSVGCIMGEMVCHKILFPGRDYIDQWNKVIEQLGTPCPEFMKKLQPTVRTYVENRPKYAGYSFEKLFPDVLFPADSEHNKLKASQARDLLSKMLVIDASKRISVDEALQHPYINVWYDPSEAEAPPPKIPDKQLDEREHTIEEWKELIYKEVMDLEERTKNGVIRGQPSPLAQVQQ
modifications: active (phosphorylated) form; biotinylated by amine crosslinking to NHS-LC-LC-biotin, 5 : 1 molar ratio of biotin to protein
notes: also called c-Jun N-terminal kinase; source: bought: SignalChem (Lot #X561-2)
B3: Active GST-JNK1α1 (SignalChem) (enzyme, UniProt P45983-2 1-384, looked up)
chain: B2 chain
modifications: active (phosphorylated) form, sites not given; biotin by amine crosslinking to NHS-LC-LC-biotin (5:1 biotin to protein)
notes: Biotinylated and held on streptavidin sensors for the NOS3 experiment; also called c-Jun N-terminal kinase; source: bought: SignalChem (JNK1, Lot #X561-2), GST-purified, active
B4: AI peptide (NOS3 autoinhibitory loop site) (peptide)
peptide: Biotin-YKIRFNSISCSDPLVSSWRRKRKESSNTDSA
notes: source: synthetic peptide, bought: Biomatik
B5: NOS3 NtMAP peptide (N-terminal MAP kinase site), biotinylated (peptide)
peptide: Biotin-CTPRRCLGSLVFPRKLQGRPSPGPPA
modifications: cysteine pairing not given here
notes: Human NOS3, N-terminal MAP kinase (NtMAP) site with the S114 site, unphosphorylated; source: synthetic peptide (Biomatik)
B6: NtMAP peptide (NOS3 N-terminal MAP kinase site) (peptide)
peptide: Biotin-CTPRRCLGSLVFPRKLQGRPSPGPPA
modifications: cysteine pairing not given here
notes: Human NOS3, N-terminal MAP kinase (NtMAP) site with the S114 site; source: synthetic peptide, bought: Biomatik

What all share (conditions): both partners purified
Test [1] deals with B3. Put plainly: BLI; biotinylated active GST-JNK1α1 (or the fusion partner alone as control) on streptavidin sensors, NOS3 as analyte at 25-800 nM; 25 °C; 50 mM Tris pH 7.4, 10 mM NaCl, 10% glycerol, 0.01% Tween-20; global one-state association-then-dissociation fit.
Test [2] addresses p38α, inactive (unphosphorylated), His-purified (UniProt Q16539 1-360). The test can be described thus: BLI; N-terminally biotinylated NOS3 peptides on streptavidin sensors, inactive MAP kinases as analytes (31 to 1000 nM); 25 °C; PBS with 10% glycerol, 0.005% tween, 1 mM DTT; global one-state association-then-dissociation fit.
Target sequence in this assay (Q16539 whole entry): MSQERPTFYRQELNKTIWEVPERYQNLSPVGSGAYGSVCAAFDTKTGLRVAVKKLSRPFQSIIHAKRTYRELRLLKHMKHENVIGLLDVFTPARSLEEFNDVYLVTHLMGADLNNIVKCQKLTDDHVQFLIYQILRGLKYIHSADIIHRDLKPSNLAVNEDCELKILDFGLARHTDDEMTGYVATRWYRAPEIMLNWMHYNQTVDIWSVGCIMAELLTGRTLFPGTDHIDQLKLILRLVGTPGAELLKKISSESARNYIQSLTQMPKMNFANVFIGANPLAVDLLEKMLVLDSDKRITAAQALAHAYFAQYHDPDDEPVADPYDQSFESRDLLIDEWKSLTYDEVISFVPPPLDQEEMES
The target in test [3] is T1, Nitric oxide synthase 3 (NOS3), bovine, …. Put plainly: BLI; biotinylated active GST-JNK1α1 on streptavidin sensors, NOS3 as analyte (25 to 800 nM); 25 °C; 50 mM Tris pH 7.4, 10 mM NaCl, 10% glycerol, 0.01% Tween-20; global one-state association-then-dissociation fit.
The target of test [4] is B1. Put plainly: BLI; biotinylated active GST-JNK1α1 (or the fusion partner alone as control) on streptavidin sensors, NOS3 as analyte at 25-800 nM; 25 °C; 50 mM Tris pH 7.4, 10 mM NaCl, 10% glycerol, 0.01% Tween-20; global one-state association-then-dissociation fit.
For test [5], the target named is p38α, inactive (unphosphorylated), His-purified (UniProt Q16539 1-360). Put plainly: BLI; N-terminally biotinylated NOS3 peptides on streptavidin sensors, inactive MAP kinases as analytes at 31-1000 nM; 25 °C; PBS with 10% glycerol, 0.005% tween, 1 mM DTT; global one-state association-then-dissociation fit.

For the molecule B1, the “KD (fit without the 400 nM trace)” value in test [1] stood at 18 nM.

In test [2], Biotin-YKIRFNSISCSDPLVSSWRRKRKESSNTDSA (source: synthetic peptide (Biomatik)) [NOS3 AI peptide (autoinhibitory loop site), biotinylated] had a koff of 0.000968 s⁻¹ and a kon of 15900 M⁻¹ s⁻¹.

On to B2, for which, in test [3], the off-rate (koff) stood at 6.19e-05 s⁻¹.

For B3, in test [4], binding was put at a Kd of 15 nM, the koff came to 6.2e-05 s⁻¹ and the kon was determined as 4110 M⁻¹ s⁻¹.

In test [5], B4 gave an equilibrium dissociation constant (Kd) of 61 nM, an off-rate constant (koff) of 0.00096 s⁻¹ and a kon of 16000 M⁻¹ s⁻¹.

In test [2], B5 displayed a koff of 0.000534 s⁻¹ and a kon of 17300 M⁻¹ s⁻¹.

In test [5], B6 yielded a Kd of 31 nM, an off-rate (koff) of 0.00053 s⁻¹ and a kon of 17000 M⁻¹ s⁻¹.

These data come from paper PMC9063426, “MAP kinases differentially bind and phosphorylate NOS3 via two unique NOS3 sites” (FEBS Open Bio, 2022).
